{"source": "patent US8067187", "proteins": {"B1": {"name": "tissue-type plasminogen activator (tPA, Actilyse, Boehringer-Ingelheim) (protein)", "chain": "SYQVICRDEKTQMIYQQHQSWLRPVLRSNRVEYCWCNSGRAQCHSVPVKSCSEPRCFNGGTCQQALYFSDFVCQCPEGFAGKCCEIDTRATCYEDQGISYRGTWSTAESGAECTNWNSSALAQKPYSGRRPDAIRLGLGNHNYCRNPDRDSKPWCYVFKAGKYSSEFCSTPACSEGNSDCYFGNGSAYRGTHSLTESGASCLPWNSMILIGKVYTAQNPSAQALGLGKHNYCRNPDGDAKPWCHVLKNRRLTWEYCDVPSCSTCGLRQYSQPQFRIKGGLFADIASHPWQAAIFAKHRRSPGERFLCGGILISSCWILSAAHCFQERFPPHHLTVILGRTYRVVPGEEEQKFEVEKYIVHKEFDDDTYDNDIALLQLKSDSSRCAQESSVVRTVCLPPADLQLPDWTECELSGYGKHEALSPFYSERLKEAHVRLYPSSRCTSQHLLNRTVTDNMLCAGDTRSGGPQANLHDACQGDSGGPLVCLNDGRMTLVGIISWGLGCGQKDVPGVYTKVTNYLDWIRDNMRP"}}, "key": {"[1]": {"target": "T1, recombinant human β2-glycoprotein I, P02749", "T1 chain": "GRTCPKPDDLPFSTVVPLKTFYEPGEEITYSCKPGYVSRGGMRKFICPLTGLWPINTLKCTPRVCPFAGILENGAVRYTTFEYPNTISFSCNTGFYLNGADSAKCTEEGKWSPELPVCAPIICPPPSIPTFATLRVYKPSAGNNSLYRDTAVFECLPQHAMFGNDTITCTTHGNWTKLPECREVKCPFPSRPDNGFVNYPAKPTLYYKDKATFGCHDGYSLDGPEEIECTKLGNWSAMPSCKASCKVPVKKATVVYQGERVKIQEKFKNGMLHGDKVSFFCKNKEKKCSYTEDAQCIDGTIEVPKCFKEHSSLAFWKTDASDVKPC"}, "[2]": {"target": "T2, β2-glycoprotein I purified from fresh human plasma, P02749", "T2 chain": "T1 chain"}, "[3]": {"target": "T3, heat-denatured misfolded chicken ovalbumin, P01012", "T3 chain": "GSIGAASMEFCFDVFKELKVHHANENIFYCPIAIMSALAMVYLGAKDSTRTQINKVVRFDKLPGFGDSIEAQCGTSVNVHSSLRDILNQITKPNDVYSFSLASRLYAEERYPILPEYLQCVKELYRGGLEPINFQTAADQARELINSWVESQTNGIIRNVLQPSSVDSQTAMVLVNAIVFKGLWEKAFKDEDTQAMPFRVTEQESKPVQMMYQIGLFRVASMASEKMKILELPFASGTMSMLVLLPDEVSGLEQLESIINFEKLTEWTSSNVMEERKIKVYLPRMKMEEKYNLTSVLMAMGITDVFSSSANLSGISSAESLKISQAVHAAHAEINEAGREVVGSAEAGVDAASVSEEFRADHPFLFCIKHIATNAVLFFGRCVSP"}}, "data": [{"protein": "B1", "values": [{"measurement": "Plg-activation assay: tPA-mediated conversion of Plg to plasmin, chromogenic substrate S-2251", "setting": "[1]", "value": "Recombinant β2GPI, but not β2GPI purified from fresh plasma stimulate tPA-mediated conversion of Plg to plasmin"}, {"measurement": "Plg-activation assay: tPA-mediated conversion of Plg to plasmin, chromogenic substrate S-2251", "setting": "[2]", "value": "Recombinant β2GPI, but not β2GPI purified from fresh plasma stimulate tPA-mediated conversion of Plg to plasmin"}, {"measurement": "tPA protease activity, chromogenic tPA substrate S-2765", "setting": "[3]", "value": "At 80-fold dilution, misfolded OVA stimulated tPA protease activity when compared to PBS/DMSO buffer control"}]}]}
